The results in this text go back to the nanobody polyreactivity screen of Harvey et al. (2022).

The series is described as follows: yeast display, Sf9 membrane polyspecificity reagent, FACS + sequencing; frameworks hold sequencing errors. In a few lines:
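Galactose induction of a Saccharomyces cerevisiae BJ5465 synthetic nanobody display library ran 36–48 hours. The cells were then stained for 1 hour at 4 °C with 10% biotinylated, detergent-solubilized Sf9 membrane reagent, pulled down on streptavidin microbeads and FACS-sorted into low and high (top ~1%) gates on expression and reagent-binding fluorescence. Labels for polyreactivity follow the gate of origin.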
With “QVQLVESGGGLVQAGGSLRLSCAASGITFYGYAMGWYRQAPGKERELVARITASGGSTYYADSVKGRFTISRDNAKNTVYLQMKSLKPEVTAVYYCAKDWYRYSRFDYWGQGTQVTVSS”, the “polyreactivity (PSR sort gate)” value is “high polyreactivity”.
Consider “QVQLVESGGGLVQAGGSLRLSCAASGSARYAMGWYRQATGNERELVAAISRRGGSTYYADSVKGRFTISRDNATKTVYLHMNSLKPEDTAVYYCAADGRISYDYWGQGTQVTVSS”, for which the “polyreactivity (PSR sort gate)” value is “low polyreactivity”.
“QVQLVESGGGLVQAGGSLRLSCAASGITLDDYAMGWDRQARGKERELVAAISWSGGSTYYADSVKGRFTISRDNAKNTDYLQMNSLKPADTAVYYCAADPPFRYDYWGQGTQVTVSS”: the “polyreactivity (PSR sort gate)” value is “low polyreactivity”.
On to “QVQLVESGGGLVQAGGSLRLSCAASGFIFYYYTMGWYRQEPGKEREFVAAITYSGGRTYYADSVKGRFTISRDNAKNTVYLQMNSLKPEDTAVYYCAVALFETGHYYWGQGTQVTVSS”, for which the “polyreactivity (PSR sort gate)” value is recorded as “high polyreactivity”.
“QVQLVESGGGLVQAGGSLRLSCAASGSTFPQNDMGWYRQAPGKERELVAAITRSAGSTYYADSVKGRFTISRDNAKNTVYLQMNSLKPEDTAVYYCNTGRQRGDGWGQGTQVTVSS”: the “polyreactivity (PSR sort gate)” value was “high polyreactivity”.
“QVQLVESGGGLVQAGGSLRLSCAASGIILYPYFMGWYIQAPGKERELVAAISYSGGSTYYADSVKGRFTISGDNAKNTVYLQMNSLKPEDTAVYYCAAVPVTSQTKYGYWGQGTQVTVSS”: the “polyreactivity (PSR sort gate)” value is recorded as “high polyreactivity”.
Regarding “QVQLVESGGGLVQAGGSLRLSCAASGITFTSYAMGWYRQAPGKERELVAAISSSGVRTYYADSVKGRFTISRDYAKNTVYLQMKSLKPEDTAVYYCATRRRVLYGYDYWGQGTQVTVSS”, the “polyreactivity (PSR sort gate)” value is “high polyreactivity”.
The result for “QVQLVESGGGLVQAGGSLRLSCAASGLTFSLNAMGWYRQAPGKERELVAAISFSGGSTYYADSVKGRFTISRDNAKNTVYLQMNSLKPEDTAVYYCAVRKRVGRGRYGYWGQGTQVTVSS” reads “high polyreactivity”; that for “QLQLVESGGGLVQAGGSLRLSCAASGRTFFGYAMGWYSQAPGKERELVATIDGSDGSTFYADSGKGRFTISRDNAKNTVYLQMNSLKPEDTAVYYCAAENFWQTKEYDYWGQGTQVTVSS”, “low polyreactivity”; that for “QVQLVESGGGLVQAGGSLRLSCAASGSSFRIYAMGWYRQAPGKERELVAAISWSSGSTYYADSVKGRFTISRDNAKNTDYLPMNSLKPEDTAVYYCATYARRSGYYYWGQGTQVTVSS”, “high polyreactivity”.
Take “QVQLVESGGGLVQAGGSLRLSCAASGSIINRYAKGWYRQAPGKERELVAAITQSGGRTYYADSVKGRFTISRDNAKNTVYLQMNSLNPEDTAVYYCNAVRWYLYDYWGQGTQVTVSS”: the “polyreactivity (PSR sort gate)” value was “high polyreactivity”.
Consider “QVQLVESGGGLVQAGGSLRLSCADSGSIFDQYTMGWYRQAPGKERELVAGISSGGITNYADSVKGRFTISRDNAKNTVYLQMNSLKPEDTAVYYCAADNWYLAEYDYWGQGTQVTVSS”, for which the “polyreactivity (PSR sort gate)” value is “low polyreactivity”.
Take “QVQLVESGGGLVQAGGSLRLSCAASGRTFNIYAMGWYRQAPGKERELVAAITWRSGSTYYADSVKGRFTISRDNAKNTVYLQMNSLTPEDTAVYYCAAEQWSCVPEFDYWGQGTQVTVSS”: the “polyreactivity (PSR sort gate)” value is on record as “high polyreactivity”.
The result for “QVHLVESGGGLVQAGGSLGLSCAASGFTFANNAMGWYRQAPGKERELVAAISSSGGSTYYADSVKVRFTISRDNAKKTVYLQMNSLKPEDTAVYYCAARRRGSYYGYGYWGQGTQVTVSS” reads “high polyreactivity”; that for “QVQLVESGGGLVQAGGSLRLSCAASGSIFWPYAMGWYRQAPGKERELVAAISSSGTSTYYADSVKGRFTISRDNAKNTVYLQMNSLKPEDTAVYYCAKELFTYPYEYWGQGTQVTVSS”, “low polyreactivity”; that for “QVQLVESGAGLVQAGGSLRSSCAASGSTFSGNAMGLYRQAPGKERELVAAISGRGGSTYYADSVKGRFTISRDNAKNSVYLQMNSLKPEDTAVYYCAKRRNTRGAYGYWGQGTQVTVSS”, “high polyreactivity”.
For “QVQLVESGGGLVQAGGSLRLSCAASGGTFHYYAMGWYRQAPGKERELVAAINRSGDSTYYADSVKGRFTISRDNAKNTVYLQMNSLKPEDTAVFYCAVSYYGADGNPFPHDYWGQGTQVTVSS”, the “polyreactivity (PSR sort gate)” value is “low polyreactivity”.
The result for “QVQLVESGGGLVQAGGSLRLSCAASGSIFSTYAMGWYRQAPGKERELVAAISVSGSSTYYADSVKGRFTISRDNAKNTVYLQMNSLKPEDTAVYYCNKAFRSVRPRRRYDYWGQGTQVTVSS” reads “low polyreactivity”.
With “QVQLVESGGCLVQAGGSLRLSFAASGSTLPYYSMGWYRHAPGKERELVAAITSSGGDTYYADSVKGRFTISRDIAKNTVYLQMNSLKPEDTAVYYCAKSFSARSTVRKLFYFAYDYWGQGTQVTVSS”, the “polyreactivity (PSR sort gate)” value is given as “low polyreactivity”.
Turning to “QVQLVESGGCLVQAGGSLRFICAASGRIFDDNAMGWYRPAPGKERELVATISSTGGRTYYADSLKGRFTISRDNAKNNVYLQMNSLKPEDTAVYYCAARRRQGGYYYWGQGTQVTVSS”, the “polyreactivity (PSR sort gate)” value is “high polyreactivity”.
“QVQLVESGGGLVQAGGSLRLSCAASGSTFVDNAMGWYRQAPGKEREMVAAIRYGSGGSTRYADSVKGRFTISRDNAKNTVYLQMNSLKPEDTAVYYCAADGYITVNYLRYDYWGQGTQVTVSS”: the “polyreactivity (PSR sort gate)” value was “low polyreactivity”.
As for “QVQLVESGGGLVQAGGSLRLSSAASGSTFVWYAMGWYRQAPGKERELVASISGSGGRTYYADSVKGRFTISRDNAKNTVYLQMNSLKPEDTAVYYCAAYYRKTGYDYWGQGTQVTVSS”, the “polyreactivity (PSR sort gate)” value is recorded as “high polyreactivity”.
For “HVQLVESGGGLVQAGGSLRLICAASVRIFADNAMGWYRQAPGKERELSAAISESGGSTYYADSVKGRFTISRDNAKNTVYLEMNSLKPEDTAVYYCAATAEVHRAEPYDYWGQGTQVTVSS”, the “polyreactivity (PSR sort gate)” value is given as “low polyreactivity”.
“QVQLVESGGGLVQAGGSLRLSCAASGSIFNSNGMGWYRQAPGKERELVAAITGGGSTNYADSVKGRFTISRDYAKNTVYLQMNSLKPEDTAVYYCAKRSYRTHTYDYWGQGTQVTVSS”: the “polyreactivity (PSR sort gate)” value is “low polyreactivity”.
Turning to “QVQLGESGGGLLQAGGSHSLICADSGSTIRPNAMGWYTQAPGKERELVATIRGGGTSTYYADSVKGRFTISRDNAKNTVYLQLNSLKPEDTAVYYCAARGFYTGSYPGYYYWGQGTQVTVSS”, the “polyreactivity (PSR sort gate)” value is “high polyreactivity”.
Take “QVQLVESGGGLVQAGGSLRLSCAASGSTIWYYVMGWYRAAPGKERELVAAIRSNDGSTYYADSVKGRFTISRDNAKNTDYLQLNRLKPEDTAVYYCAADDWVYAQEYDYWGQGTQVTVSS”: the “polyreactivity (PSR sort gate)” value was “low polyreactivity”.
As to “QVQLVESGGGLVQAGGSLRLSWAASGRTLKYNAMGWYRQAHGKERELVSAISYSGSSTYYADSVKGRFTISRDNAKNTVYLQMNSLKPEDTAVYYCNTARPTAAYDYWGQGTQVTVSS”, the “polyreactivity (PSR sort gate)” value is listed as “low polyreactivity”.
With “QVQLVESGGGLVQAGGSLRLSCAASGFTFVPYTMGWYRQAPGKERELVPRINTSGGGTYYADSVKGRFTISRDNAKNTVYLQMNSLKPEDTAVYYCAARRNYRAQPKTRWTGYYYWGQGTQVTVSS”, the “polyreactivity (PSR sort gate)” value was “high polyreactivity”.
With “QVQLVESGGGLVQAGGSLRLSCAASGSTFSYAMGWYRQAPGKERELVAAITIGGRTSYADSVKGRFTISRDNAKNTVYLQMNSLNPEDTAVYYCAADDLPGMDYWGQGSQVTVSS”, the “polyreactivity (PSR sort gate)” value is “low polyreactivity”.
As for “QVQLVESGGGLVQAGGSLRLSCAASGRTSRYYAMGWYRQAPGKERELVAGISWSGGNTYYADSVKGRFTISRDNAKNTVYLQMNSLKPEDTAVYYCNARIGWSPSRYGYWGQGTQVTVSS”, the “polyreactivity (PSR sort gate)” value is listed as “high polyreactivity”.
For “QVQLEESGGGLVQAGGSLRLSCAASGSIFPRFYAIGWYRQAPGKERELVAAISWRDGSTFYADSVKGRFTISRDNAKNTVYLQMNSLKPEDTGVYYCAAATYRYGYGYWGQGTQVTVSS”, the “polyreactivity (PSR sort gate)” value is “high polyreactivity”.
Regarding “QVQLVESWGGLVQAGGSLRLSCDASGSTFDGNDMGWSRPAPGKQRELVAAITIGGGSTYYADSVKGRFTISRDNAKNTVYLQMNSLKPEDTADYYCATEWVTGSEDYDYWGQGTQVTVSS”, the “polyreactivity (PSR sort gate)” value is given as “low polyreactivity”.
As to “QDQLVESGGGLVQAGGSLRLSCAASGFTFGYYPMGWSRQAPGKERELVAAITSSGGRTYYADSVKGRFTISRDYGKNTVYLQMNSLKPEDTAVYYCATAYRPDYGYWGQGTQVTRSS”, the “polyreactivity (PSR sort gate)” value was “high polyreactivity”.
For “QVQLVESGGGLVQAGGSLRLSCAASGRIFKYYAMGWYRQAPWKERELVDTIRRSGGSTYYADSVKGRFTISRDNAKNTVYLQMNSLKPEDTAVYYCNARYLFLQAWLRPYRSDYWGQVTQVTVSS”, the “polyreactivity (PSR sort gate)” value is reported as “high polyreactivity”.
“QVQLVESGGGLVQAGGSLRLSCAASGFTFWIYAMGWYRQAPGKERELVAVISRGGSTYYADSVKGRFTISRDNAKNTVYLQMNSLKPEDTAVYYCNAVGVRGYDYWGQGTQVTVSS”: the “polyreactivity (PSR sort gate)” value is “high polyreactivity”.
Take “QVQLVESGGGLVQAGGSLRLSCAASGIIFPSYAMGWYRQAPGKERELVAGISSGGNTYYADSVKGRFTISRDNAKNTVYLQMNSLKPEDTAVYYCATAFAIWGLYYGYDYWGQGTQVTVSS”: the “polyreactivity (PSR sort gate)” value is listed as “low polyreactivity”.
“QVQLVESGGGLVQAGGSLRLSCAASGSTFYWYTMGWYRQAPGKEKELVARISSSGSTNYADSVKGRFTISRDNAKNTVYLQMNSLKPEDTAVYYCNKDWIYRGYDYWGQGTQVTVSS”: the “polyreactivity (PSR sort gate)” value is recorded as “high polyreactivity”.
With “QVQLVESGGGLVQAGGSLRLSCAASGFIFEYYAMGWYRQAPGKERELVAAISNGGGRTYYADSVKGRFTISRDNAKNTVYLQMNSLKPEDTAVYYCAAYWVYQRNSRTWEYDYWGQGTQVTVSS”, the “polyreactivity (PSR sort gate)” value was “high polyreactivity”.
“QVQLLESGGGLVQAGGSLRLSCAASGGTFYSYAMGWYRQAPGKEREFVATITRRSGSTYYADSVKGRFTISRDNAKNTVYLQMNSLKPEDNAVYYCAATKYKLLFIHFRYDYWGQGTQVTVSS”: the “polyreactivity (PSR sort gate)” value is recorded as “high polyreactivity”.
As for “QVQLVESGGGLVQAGGSLRLSCAASGRTFWPNAMGWYRQAPGKERELVAGIDWSGGSTYYADSVKGRFTISRDNAKNTVYLQMNSLKPEDTAVYYCNKVYYSYIPSTYGYWGQGTQVTVSS”, the “polyreactivity (PSR sort gate)” value is “high polyreactivity”.
As for “QVQLVESGGVLVQPGCILRLSCAASGRIYWYYAMGWYRQAPGKERELVAAISRSRGSTYYADSVKGRFTISRDNEKNTVYLQMNSLKPEDTAVYYCAAGARAFDDDYWGQGTQVTVSS”, the “polyreactivity (PSR sort gate)” value was “low polyreactivity”.
